Measurements from publication PMC10690159.

Biological target: SARS-CoV-2 Nsp15 catalytically inactive mutant H234A (SARS-CoV-2)
Assay: cryo-EM structure

SARS-CoV-2 Nsp15 catalytically inactive mutant H234A (enzyme)
stoichiometry N: 6
